Results as given in patent US20250250357A1 (NANJING ZAIMING PHARMACEUTICAL, published 2025).
Each block holds one binder with its values, some of them ahead of it.

Columns and labels:
[1] = molecular target: T1, human MSLN-R3-his protein (human, UniProt Q13421 487-598); experiment: ELISA on coated antigen, no antibody (column none)
T1 construct: Self-made in HEK293E cells; also called human MSLN-R3 protein; hMSLN-R3-his; not shown: His tag

[2] = molecular target: T1, human MSLN-R3-his protein; experiment: ELISA on coated antigen, antibody 1 nM
Method: (§1) The plate was sealed with a plastic film and incubated at 4° C. overnight. The next day, the plate was washed twice with PBST, and a blocking buffer [PBS+2% (w/w) BSA] was added for blocking at room temperature for 2 h. The blocking buffer was discarded, and a chimeric antibody or negative control antibody serially diluted from 100 nM was added at 50 μL/well. After incubation at 37° C. for 2 h, the plate was washed 3 times with PBST. […] After incubation at 37° C. for 2 h, the plate was washed 5 times with PBST. A TMB substrate was added at 50 μL/well for incubation at room temperature for 5-10 min, and then a stop solution (1.0 N HCl) was added at 50 μL/well.

[3] = molecular target: T2, human MSLN-R3-3 polypeptide (human); experiment: ELISA on coated antigen, antibody 10 nM
T2 construct: also called human MSLN-R3-3 protein; hMSLN-R3-3
Method: as §1

[4] = molecular target: T2, human MSLN-R3-3 polypeptide; experiment: ELISA on coated antigen, antibody 0.001 nM
Method: as §1

[5] = molecular target: T1, human MSLN-R3-his protein; experiment: ELISA on coated antigen, antibody 100 nM
Method: as §1

[6] = molecular target: T3, human MSLN-R2-his protein (human, UniProt Q13421 391-486); experiment: ELISA on coated antigen, antibody 0.01 nM
T3 construct: Self-made in HEK293E cells; also called human MSLN-R2 protein; hMSLN-R2-his; not shown: His tag

[7] = molecular target: T1, human MSLN-R3-his protein; experiment: ELISA on coated antigen, antibody 0.1 nM
Method: as §1

[8] = molecular target: T2, human MSLN-R3-3 polypeptide; experiment: ELISA on coated antigen, antibody 0.01 nM
Method: as §1

[9] = molecular target: T3, human MSLN-R2-his protein; experiment: ELISA on coated antigen, antibody 1 nM
Method: as §1

[10] = molecular target: T3, human MSLN-R2-his protein; experiment: ELISA on coated antigen, antibody 0.0001 nM
Method: as §1

[11] = molecular target: T2, human MSLN-R3-3 polypeptide; experiment: ELISA on coated antigen, antibody 100 nM
Method: as §1

[12] = molecular target: T2, human MSLN-R3-3 polypeptide; experiment: ELISA on coated antigen, no antibody (column none)
Method: as §1

[13] = molecular target: T1, human MSLN-R3-his protein; experiment: ELISA on coated antigen, antibody 0.0001 nM
Method: as §1

[14] = molecular target: T1, human MSLN-R3-his protein; experiment: ELISA on coated antigen, antibody 0.001 nM
Method: as §1

[15] = molecular target: T3, human MSLN-R2-his protein; experiment: ELISA on coated antigen, antibody 10 nM
Method: as §1

[16] = molecular target: T3, human MSLN-R2-his protein; experiment: ELISA on coated antigen, no antibody (column none)
Method: as §1

[17] = molecular target: T1, human MSLN-R3-his protein; experiment: ELISA on coated antigen, antibody 0.01 nM
Method: as §1

[18] = molecular target: T1, human MSLN-R3-his protein; experiment: ELISA on coated antigen, antibody 10 nM
Method: as §1

[19] = molecular target: T3, human MSLN-R2-his protein; experiment: ELISA on coated antigen, antibody 0.001 nM
Method: as §1

[20] = molecular target: T2, human MSLN-R3-3 polypeptide; experiment: ELISA on coated antigen, antibody 1 nM
Method: as §1

[21] = molecular target: T2, human MSLN-R3-3 polypeptide; experiment: ELISA on coated antigen, antibody 0.1 nM
Method: as §1

[22] = molecular target: T3, human MSLN-R2-his protein; experiment: ELISA on coated antigen, antibody 0.1 nM
Method: as §1

[23] = molecular target: T2, human MSLN-R3-3 polypeptide; experiment: ELISA on coated antigen, antibody 0.0001 nM
Method: as §1

[24] = molecular target: T3, human MSLN-R2-his protein; experiment: ELISA on coated antigen, antibody 100 nM
Method: as §1

[25] = molecular target: T4, human MSLN-R1-his protein (human, UniProt Q13421 296-390); experiment: ELISA on coated antigen, antibody 0.01 nM
T4 construct: Self-made in HEK293E cells; also called human MSLN-R1 protein; hMSLN-R1-his; not shown: His tag
T4 chain: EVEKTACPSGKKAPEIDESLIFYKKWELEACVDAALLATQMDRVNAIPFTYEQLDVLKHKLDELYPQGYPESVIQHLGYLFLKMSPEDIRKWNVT

[26] = molecular target: T5, human MSLN-FL-his protein (human, UniProt Q13421 296-580); experiment: ELISA on coated antigen, antibody 10 nM
T5 construct: Self-made in HEK293E cells; also called human MSLN full-length protein; hMSLN-FL-his; not shown: His tag

[27] = molecular target: T5, human MSLN-FL-his protein; experiment: ELISA on coated antigen, antibody 0.0001 nM
Method: as §1

[28] = molecular target: T4, human MSLN-R1-his protein; experiment: ELISA on coated antigen, no antibody (column none)
Method: as §1

[29] = molecular target: T5, human MSLN-FL-his protein; experiment: ELISA on coated antigen, antibody 0.1 nM
Method: as §1

[30] = molecular target: T4, human MSLN-R1-his protein; experiment: ELISA on coated antigen, antibody 10 nM
Method: as §1

[31] = molecular target: T5, human MSLN-FL-his protein; experiment: ELISA on coated antigen, antibody 0.001 nM
Method: as §1

[32] = molecular target: T4, human MSLN-R1-his protein; experiment: ELISA on coated antigen, antibody 1 nM
Method: as §1

[33] = molecular target: T4, human MSLN-R1-his protein; experiment: ELISA on coated antigen, antibody 0.0001 nM
Method: as §1

[34] = molecular target: T5, human MSLN-FL-his protein; experiment: ELISA on coated antigen, no antibody (column none)
Method: as §1

[35] = molecular target: T5, human MSLN-FL-his protein; experiment: ELISA on coated antigen, antibody 1 nM
Method: as §1

[36] = molecular target: T4, human MSLN-R1-his protein; experiment: ELISA on coated antigen, antibody 100 nM
Method: as §1

[37] = molecular target: T4, human MSLN-R1-his protein; experiment: ELISA on coated antigen, antibody 0.001 nM
Method: as §1

[38] = molecular target: T5, human MSLN-FL-his protein; experiment: ELISA on coated antigen, antibody 0.01 nM
Method: as §1

[39] = molecular target: T5, human MSLN-FL-his protein; experiment: ELISA on coated antigen, antibody 100 nM
Method: as §1

[40] = molecular target: T4, human MSLN-R1-his protein; experiment: ELISA on coated antigen, antibody 0.1 nM
Method: as §1

T1 sequence (Q13421 495-606): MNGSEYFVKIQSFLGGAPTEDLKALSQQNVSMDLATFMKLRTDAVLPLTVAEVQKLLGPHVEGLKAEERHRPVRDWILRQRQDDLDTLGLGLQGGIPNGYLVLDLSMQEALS
T3 sequence (Q13421 other isoform, or with tags, fused parts or gaps): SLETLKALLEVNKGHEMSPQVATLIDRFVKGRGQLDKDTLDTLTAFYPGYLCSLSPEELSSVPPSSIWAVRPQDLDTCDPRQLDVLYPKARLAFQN

B1: S009-F2.58.8 (antibody, human IgG1, kappa, V domains shown)
VH: QVQLLQSGAELAKPGASVKLSCKASGYTFTSYWVHWVKQRPGQGLEWIGYINPNSGYTKYNQKFKDKATLTADKSSSTAYMQLSSLTYEDSAVYYCADHYYGSSRDYFDYWGQGTTLTVSS
VL: QIVLTQSPAIMSASPGEKVTMTCSASSSVSYMYWYQQRPGSSPRLLIYDTSNLASGVPVRFSGSGSGTSYSLTISRMEAEDAATYYCQQWNSYPYTFGGGTKLEIKR
notes: Human-murine chimeric antibody: murine VH/VL on human IgG1 heavy and kappa light constant regions
OD450 [1]: 0.05 OD450 | OD450 [2]: 0.05 OD450 | OD450 [3]: 0.06 OD450 | OD450 [4]: 0.06 OD450 | OD450 [5]: 0.07 OD450 | OD450 [6]: 0.12 OD450 | OD450 [7]: 0.05 OD450 | OD450 [8]: 0.06 OD450 | OD450 [9]: 2.04 OD450 | OD450 [10]: 0.05 OD450 | OD450 [11]: 0.07 OD450 | OD450 [12]: 0.06 OD450 | OD450 [13]: 0.05 OD450 | OD450 [14]: 0.05 OD450 | OD450 [15]: 2.43 OD450 | OD450 [16]: 0.06 OD450 | OD450 [17]: 0.05 OD450 | OD450 [18]: 0.05 OD450 | OD450 [19]: 0.06 OD450 | OD450 [20]: 0.06 OD450 | OD450 [21]: 0.06 OD450 | OD450 [22]: 0.63 OD450 | OD450 [23]: 0.05 OD450 | OD450 [24]: 2.63 OD450

B3: S009-F3.7.3 (antibody, human IgG1, kappa, V domains shown)
VH: EVNFEESGGGLVQPGGSMKLSCVASGFTFSNYWMNWVRQSPEKGLEWVAQIRLKSDNYATHYAESVKGRFTISRDDFKSSVYLQMNNLRAEDTGIYYCTVGTGGYWGQGTTLTVSS
VL: DIVLTQSPASLAMSLGKRATISCRASESVSIVGTNVIHWFQQKPGQPPKLLIYHASNLETGVPARFSGSGSGTDFTLTIDPVEEDDVAIYHCLQSRKIPWTFGGGTKLEIKR
notes: as for B1
OD450 [25]: 0.06 OD450 | OD450 [26]: 0.08 OD450 | OD450 [27]: 0.06 OD450 | OD450 [28]: 0.08 OD450 | OD450 [29]: 0.07 OD450 | OD450 [30]: 0.08 OD450 | OD450 [31]: 0.06 OD450 | OD450 [32]: 0.07 OD450 | OD450 [33]: 0.07 OD450 | OD450 [34]: 0.08 OD450 | OD450 [35]: 0.07 OD450 | OD450 [36]: 0.12 OD450 | OD450 [37]: 0.07 OD450 | OD450 [38]: 0.07 OD450 | OD450 [39]: 0.13 OD450 | OD450 [40]: 0.07 OD450

B4: S009-F3.16.1 (antibody, human IgG1, kappa, V domains shown)
VH: EVKFEESGGGLVQPGGSMKLSCVASGFTFSNYWMNWVRQSPEKGLEWVAQIRLKSDNYATHYAESVKGRFSISRDDSKSSVYLQMNNLRAEDTGIYYCSVGTGGYWGQGTTLTVSS
VL: DIVLTQSPASLALSPGKRATISCRASESVSIIGTDVIHWFQQKPGQPPKLLIYHASNLETGVPARFSGSGSRTDFTLTIDPVEEDDVAIYYCLQSRKIPWTFGGGTKLEIKR
notes: as for B1
OD450 [25]: 0.06 OD450 | OD450 [26]: 0.11 OD450 | OD450 [27]: 0.06 OD450 | OD450 [28]: 0.08 OD450 | OD450 [29]: 0.08 OD450 | OD450 [30]: 0.08 OD450 | OD450 [31]: 0.06 OD450 | OD450 [32]: 0.06 OD450 | OD450 [33]: 0.07 OD450 | OD450 [34]: 0.08 OD450 | OD450 [35]: 0.08 OD450 | OD450 [36]: 0.1 OD450 | OD450 [37]: 0.07 OD450 | OD450 [38]: 0.07 OD450 | OD450 [39]: 0.12 OD450 | OD450 [40]: 0.07 OD450

B6: S009-F3.23.1 (antibody, human IgG1, kappa, V domains shown)
VH: QVQLQQSGADLVRPGASVTLSCKASGYTFTDYEMHWVKQTPVHGLEWIGAIDPETGDTVYNQNFKGKAILTADKSSSTAYMELRSLTSEDSAVYYCTRYGYDWGWGQGTTLTVSS
VL: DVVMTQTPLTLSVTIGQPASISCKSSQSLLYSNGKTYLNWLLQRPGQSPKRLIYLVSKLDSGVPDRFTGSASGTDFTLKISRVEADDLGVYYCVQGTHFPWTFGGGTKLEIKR
notes: as for B1
OD450 [25]: 0.06 OD450 | OD450 [26]: 2.11 OD450 | OD450 [27]: 0.07 OD450 | OD450 [28]: 0.07 OD450 | OD450 [29]: 1.76 OD450 | OD450 [30]: 0.06 OD450 | OD450 [31]: 0.15 OD450 | OD450 [32]: 0.06 OD450 | OD450 [33]: 0.07 OD450 | OD450 [34]: 0.07 OD450 | OD450 [35]: 1.98 OD450 | OD450 [36]: 0.08 OD450 | OD450 [37]: 0.06 OD450 | OD450 [38]: 0.7 OD450 | OD450 [39]: 2.39 OD450 | OD450 [40]: 0.06 OD450

Next, values leading:

OD450 [25]: 0.06 OD450 | OD450 [26]: 1.8 OD450 | OD450 [27]: 0.1 OD450 | OD450 [28]: 0.07 OD450 | OD450 [29]: 1.63 OD450 | OD450 [30]: 0.11 OD450 | OD450 [31]: 0.35 OD450 | OD450 [32]: 0.06 OD450 | OD450 [33]: 0.06 OD450 | OD450 [34]: 0.08 OD450 | OD450 [35]: 1.75 OD450 | OD450 [36]: 0.65 OD450 | OD450 [37]: 0.06 OD450 | OD450 [38]: 0.69 OD450 | OD450 [39]: 2.23 OD450 | OD450 [40]: 0.05 OD450
B2: S009-F3.45.21 (antibody, human IgG1, kappa, V domains shown)
VH: DVQLQESGPGLVKPSQSLSLTCSVTGDSITSGYYWNWIRQFPGNKLEWMGFIRFDGTNNYNPSLKNRISITRDTSKNQFFLKLNSVTTEDTATYYCAREGSYAPAWFAYWGQGTLVTVSA
VL: QIVLTQSPAIMSASPGEKVTMTCSASSSLSYMYWYQQKPGSSPRLLIYDTSNLASGVPVRFSGSGSGTSYSLTISRMEAEDAATYYCQQWSSYPPTFGGGTKLEIKR
notes: as for B1

OD450 [25]: 0.06 OD450 | OD450 [26]: 0.06 OD450 | OD450 [27]: 0.06 OD450 | OD450 [28]: 0.07 OD450 | OD450 [29]: 0.07 OD450 | OD450 [30]: 0.07 OD450 | OD450 [31]: 0.06 OD450 | OD450 [32]: 0.06 OD450 | OD450 [33]: 0.07 OD450 | OD450 [34]: 0.07 OD450 | OD450 [35]: 0.07 OD450 | OD450 [36]: 0.11 OD450 | OD450 [37]: 0.07 OD450 | OD450 [38]: 0.07 OD450 | OD450 [39]: 0.1 OD450 | OD450 [40]: 0.06 OD450
B5: S009-F3.38.10 (antibody, human IgG1, kappa, V domains shown)
VH: EVQLQQSGPVLVKPGASVKMSCEASGYIFTDYYMNWVKKSHGKSLEWIGVINPKNGVISHNQKFKGKATLTVDKSSNTAYMELSSLTSEDSAVYYCANYGSRFYAMDYWGQGTSVTVSS
VL: DVVMTQTPLSLPVSLGDQASISCRSSQSLIHSDGNTYLQWYLQKSGQSPKLLIYKVSNRFSGVPDRFSGSGSGTDFTLKISRVETEDLGVYFCSQTTHVPFTFGSGTKLEIKR
notes: as for B1
